Reference: patent US20230381331A1 (HANMI PHARM, published 2023)
Non-standard residues stand in square brackets, D forms with d. No end group written: not given here. Aib = CC(C)(N)C(=O)O

T1: human GIP receptor (human, UniProt P48546 22-466)
T1 sequence (looked up): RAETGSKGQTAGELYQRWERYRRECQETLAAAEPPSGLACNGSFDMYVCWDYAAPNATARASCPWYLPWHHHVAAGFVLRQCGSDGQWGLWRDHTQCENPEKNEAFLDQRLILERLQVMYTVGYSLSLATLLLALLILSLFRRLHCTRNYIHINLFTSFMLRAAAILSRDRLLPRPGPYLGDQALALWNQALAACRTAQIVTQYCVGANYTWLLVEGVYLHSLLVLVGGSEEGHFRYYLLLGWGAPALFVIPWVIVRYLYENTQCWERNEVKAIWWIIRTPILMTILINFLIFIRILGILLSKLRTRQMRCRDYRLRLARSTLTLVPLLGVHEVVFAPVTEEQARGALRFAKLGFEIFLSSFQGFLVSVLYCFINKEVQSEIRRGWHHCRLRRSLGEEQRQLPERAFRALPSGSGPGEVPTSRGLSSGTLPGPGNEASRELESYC

B1: GIP derivative of SEQ ID NO: 11 (peptide)
peptide: Y[Aib]EGTFISDYSIAMDAIAQQDFVNWLLAQKGKKNDWKHNITQC
modifications: not fully specified; printed as YAibEGT FISDYSIAMDAIAQQDFVNWLLAQKGKKNDWKHNITQC

Target: T1, human GIP receptor
Assay: cell-based or functional assay

Point of comparison: Y[Aib]EGTFISDYSIYMDAIAQQDFVNWLLAGGPSSGAPPPSC [GIP derivative of SEQ ID NO: 4], “In vitro activity of GIP derivative compared to human native GIP in human GIP receptor (%) (cAMP EC50, LANCE cAMP kit, CHO cells)” value 10.5%. Against it:
- Y[Aib]EGTFISDYSIQMDAIAQQDFVNWLLAGGPSSGAPPPSC [GIP derivative of SEQ ID NO: 5] — higher, 12.1%
- Y[Aib]EGTFISDYSIYLDKQAQKEFVNWLL[Aib]GGPSSGAPPPSC [GIP derivative of SEQ ID NO: 23] — higher, 87.6%
- Y[Aib]EGTFISDYSIYLDKQAA[Aib]EFVNWLL[Aib]GHPSSGAPPPSC [GIP derivative of SEQ ID NO: 19] — higher, 66.7%
- Y[Aib]EGTFISDYSIYLDAQAQQDFVNWLLAGGPSSGAPPPSC [GIP derivative of SEQ ID NO: 7] — higher, 19.6%
- Y[Aib]EGTFISDYSIYLDAQAAKDFVNWLLAGGPSSGAPPPSC [GIP derivative of SEQ ID NO: 9] — lower, 2%
- Y[Aib]EGTFISDYSIYLDAQAA[Aib]DFVNWLLAGGPSSGAPPPSC [GIP derivative of SEQ ID NO: 8] — lower, 1.9%
- B1 — higher, 122%
- Y[Aib]EGTFISDYSIAMDAIAQQDFVNWLLAQKPSSGAPPPSC (not fully specified) [GIP derivative of SEQ ID NO: 1] — higher, 49.3%
- Y[Aib]EGTFISDYSIYLDKQAA[Aib]EFVNWLL[Aib]GGPSSGAPPPSC [GIP derivative of SEQ ID NO: 20] — higher, 75.3%
- Y[Aib]EGTFISDYSIYLDAIAQQDFVNWLLAGGPSSGAPPPSC [GIP derivative of SEQ ID NO: 6] — higher, 17.4%
- Y[Aib]EGTFISDYSIYLDKQAA[Aib]EFVNWLLAQKGKKNDWKHNITQC (not fully specified) [GIP derivative of SEQ ID NO: 12] — higher, 49.2%
- Y[Aib]EGTFISDYSIALEKQAQQDFVNWLLAGGPSSGAPPPSC [GIP derivative of SEQ ID NO: 17] — higher, 111%
- Y[Aib]EGTFISDYSIYLDKQAA[Aib]EFVNWLLAQKC (not fully specified) [GIP derivative of SEQ ID NO: 13] — higher, 31.1%
- Y[Aib]EGTFISDYSIYLDKQAA[Aib]EFVQWLIAGHPSSGAPPPC [GIP derivative of SEQ ID NO: 26] — higher, 66.7%
- Y[Aib]EGTFISDYSIYLDKQAAQEFVNWLLAQKPSSGAPPPSC [GIP derivative of SEQ ID NO: 18] — higher, 13.6%
- Y[Aib]EGTFISDYSIYLDKQAA[Aib]EFVNWLLAGHPSSGAPPPSC [GIP derivative of SEQ ID NO: 22] — higher, 71.6%
- Y[Aib]EGTFISDYSIYLDAQAAKEFIAWLLAGGPSSGAPPPSC (not fully specified) [GIP derivative of SEQ ID NO: 10] — higher, 13.9%
- Y[Aib]EGTFISDYSIAMDAIAQQDFVNWLLAGGPSSGAPPPSC [GIP derivative of SEQ ID NO: 2] — higher, 13.9%
- Y[Aib]EGTFISDYSI[Aib]MDAIAQQDFVNWLLAGGPSSGAPPPSC [GIP derivative of SEQ ID NO: 3] — higher, 15.6%
- Y[Aib]EGTFISDYSI[Aib]LDKQAA[Aib]EFVNWLL[Aib]GGPSSGAPPPSC [GIP derivative of SEQ ID NO: 21] — higher, 123%
- Y[Aib]EGTFISDYSIAMDGIAQQDFVNWLLAQKPSSGAPPPSC (not fully specified) [GIP derivative of SEQ ID NO: 16] — higher, 11.3%
- Y[Aib]EGTFISDYSIYLDAQAA[Aib]EFVNWLLAQKC (not fully specified) [GIP derivative of SEQ ID NO: 14] — higher, 17.4%
- Y[Aib]EGTFISDYSIAMDKIAQQDFVNWLLAQKPSSGAPPPSC (not fully specified) [GIP derivative of SEQ ID NO: 15] — higher, 31.1%
- Y[Aib]EGTFISDYSIYLDKQAA[Aib]EFVQWLI[Aib]GGPSSGAPPPSC [GIP derivative of SEQ ID NO: 25] — higher, 78.3%
- Y[Aib]EGTFISDYSI[Aib]LDKQAA[Aib]EFVNWLL[Aib]GHPSSGAPPPSC [GIP derivative of SEQ ID NO: 24] — higher, 183%
